Test results as given in patent US20220227882A1 (TRUSTEES OF TUFTS COLLEGE, published 2022).
Numbering of substitutions follows the chain as printed.

Assays:
G445A = target: T1, G445A (Homo sapiens, UniProt P78325); assay: high-throughput flow cytometry, HEK293 cells with mutant ADAM8, high stringency; range in parentheses; closed box
T1 construct: expressed on HEK293 cells; also called human ADAM8 point mutant G445A
T1 sequence (ADAM8, looked up): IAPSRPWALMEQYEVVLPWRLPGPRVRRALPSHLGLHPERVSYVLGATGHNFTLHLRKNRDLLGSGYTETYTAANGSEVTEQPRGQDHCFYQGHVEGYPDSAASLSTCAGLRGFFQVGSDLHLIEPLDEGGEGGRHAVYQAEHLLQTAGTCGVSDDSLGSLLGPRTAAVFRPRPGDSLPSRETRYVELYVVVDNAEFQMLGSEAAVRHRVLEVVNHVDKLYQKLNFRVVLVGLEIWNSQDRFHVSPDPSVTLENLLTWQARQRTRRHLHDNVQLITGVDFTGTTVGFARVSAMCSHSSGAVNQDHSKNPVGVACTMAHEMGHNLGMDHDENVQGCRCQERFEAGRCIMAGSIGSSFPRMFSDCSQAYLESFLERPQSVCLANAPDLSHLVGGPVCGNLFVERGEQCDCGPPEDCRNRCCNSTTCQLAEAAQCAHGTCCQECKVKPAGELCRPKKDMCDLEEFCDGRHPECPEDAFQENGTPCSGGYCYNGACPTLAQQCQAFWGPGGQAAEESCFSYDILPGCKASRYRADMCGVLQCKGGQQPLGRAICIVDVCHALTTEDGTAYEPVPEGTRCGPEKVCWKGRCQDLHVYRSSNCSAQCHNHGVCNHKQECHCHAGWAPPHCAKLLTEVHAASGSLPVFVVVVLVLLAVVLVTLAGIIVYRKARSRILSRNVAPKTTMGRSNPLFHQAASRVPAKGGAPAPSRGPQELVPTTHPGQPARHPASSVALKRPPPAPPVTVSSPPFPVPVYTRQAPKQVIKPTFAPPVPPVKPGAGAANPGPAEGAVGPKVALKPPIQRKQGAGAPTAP
Description: (§1) A variety of experimental parameters were optimized for high-throughput flow cytometry including blocking buffer, and primary and secondary antibody concentrations, to identify the optimal conditions for screening. Through these studies ADP2 and ADP13 were determined to be high affinity binding antibodies.
(§2) Thus, for these studies antigen-binding fragments (Fabs) of ADP2 and ADP13, which bind with lower affinity than the full antibody, were generated. In addition, higher binding stringency conditions were tested, such as increased pH, salinity, and temperature, and/or increased washing, to weaken binding sufficiently to allow identification of critical binding residues in flow cytometry. The final experimental flow cytometry conditions were: primary antibody incubation with ADP2 Fab (0.50 μg/ml), ADP13 Fab (5.00 μg/ml) and Control Ab (0.16 μg/ml) for 60 minutes in flow cytometry buffer containing 10% goat serum in PBS (Ca²⁺ and Mg²⁺ free). […] Samples were washed three times after primary antibody incubation and twice after secondary antibody incubation with PBS (Ca²⁺ and Mg′ free). Next, HEK293 cells expressing WT or mutated ADAM8 proteins or EV DNA were incubated with ADP2 or ADP13 Fabs or Control Ab at their optimal concentrations. Fab binding was detected using Alexa Fluor 488-conjugated secondary antibodies and mean cellular fluorescence determined using the Intellicyt iQue flow cytometry platform. […] This counter-screen strategy facilitates the exclusion of mutants that are locally misfolded or that have an expression defect. Binding of each test Fab to each mutant clone in the alanine scanning library was determined, in duplicate, by high-throughput flow cytometry.

R482A = target: T2, R482A (Homo sapiens, UniProt P78325); assay: as above
T2 construct: expressed on HEK293 cells; also called human ADAM8 point mutant R482A
T2 sequence (ADAM8, looked up): T1 sequence (ADAM8, looked up) with A429G, R466A
Description: as §1, §2

B1: ADP13 Fab (Fab, V domains shown)
VH: EVQLQQSGPEMVKPGTSVKISCKASGYTFTDYYINWVKQSHGKSLEWIGDISPNIGGATYNPKFKGKAILTVDKSARTAYMELRSLTSEDSAVYCCTRGGSSYPYFYAMDYWGQGTSVTVSS
VL: DIVMSQSPSSLAVSVGEKVTMSCKSSQSLLYSSNQKKYLAWYQQKPGQSPKLLIYWASTRESGVPDRFTGSGSGTDFTLTISSVKAEDLAVYYCQQFYSYPYTFGGGTKLEINR
G445A
  Binding Reactivity (% WT): 9.7 % WT
R482A
  Binding Reactivity (% WT): 8.3 % WT
